The text below walks through data of patent publication US20200079833A1 (AstraZeneca / MedImmune, published 2020).

Starred links: 1 amine or outer side, 2 acyl side, 3 side chain; linkers in the order of their positions; H or OH if unused. Non-standard residues stand in square brackets, D forms with d. Groups on a side chain read outwards from the residue. No end group written: not given here. *: point of attachment. γGlu = O=C(O)[C@H](CCC(=O)[*:2])N[*:1]; Stearoyl = CCCCCCCCCCCCCCCCCC(=O)*; αMeF = C[C@](N)(Cc1ccccc1)C(=O)O; αMeK = C[C@](N)(CCCCN)C(=O)O; αMeS = C[C@](N)(CO)C(=O)O; Aib = CC(C)(N)C(=O)O; Ahx = NCCCCCC(=O)O

What all share (test): cell-based or functional assay
One assay addresses GLP-1 receptor (GLP-1R) (human, UniProt P43220 24-463).
The target in a further assay is glucagon receptor (GCGR) (human, UniProt P47871 26-477).
Assay [1] deals with T1, glucose-dependent insulinotropic peptide (gastric inhibitory polypeptide) receptor (GIPR) (human, UniProt P48546 22-466).
T1 sequence (looked up): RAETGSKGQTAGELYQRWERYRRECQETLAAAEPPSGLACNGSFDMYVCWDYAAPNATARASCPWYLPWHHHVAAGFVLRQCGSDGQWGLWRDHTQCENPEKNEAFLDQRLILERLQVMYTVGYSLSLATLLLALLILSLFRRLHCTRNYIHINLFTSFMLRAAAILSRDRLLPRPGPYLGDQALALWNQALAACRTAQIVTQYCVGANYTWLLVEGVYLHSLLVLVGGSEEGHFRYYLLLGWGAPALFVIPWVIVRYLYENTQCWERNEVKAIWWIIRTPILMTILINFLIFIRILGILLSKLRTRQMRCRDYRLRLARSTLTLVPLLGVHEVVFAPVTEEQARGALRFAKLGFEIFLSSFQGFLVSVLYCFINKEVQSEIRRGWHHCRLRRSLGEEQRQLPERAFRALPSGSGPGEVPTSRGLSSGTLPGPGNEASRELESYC

glucagon receptor (GCGR), sequence (P47871 26-477): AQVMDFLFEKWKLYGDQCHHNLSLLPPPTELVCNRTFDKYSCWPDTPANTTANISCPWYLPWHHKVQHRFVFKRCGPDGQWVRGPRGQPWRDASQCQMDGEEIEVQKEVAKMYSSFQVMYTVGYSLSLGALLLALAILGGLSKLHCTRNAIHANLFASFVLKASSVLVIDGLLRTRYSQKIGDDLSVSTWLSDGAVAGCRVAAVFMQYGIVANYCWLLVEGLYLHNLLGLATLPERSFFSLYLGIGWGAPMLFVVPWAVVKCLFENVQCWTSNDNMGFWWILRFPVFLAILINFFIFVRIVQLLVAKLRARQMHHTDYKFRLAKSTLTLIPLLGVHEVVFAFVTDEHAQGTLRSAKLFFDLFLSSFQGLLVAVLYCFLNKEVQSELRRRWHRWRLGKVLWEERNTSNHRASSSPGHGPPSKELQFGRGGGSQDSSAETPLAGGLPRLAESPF

B1: SEQ ID NO 184 (peptide)
peptide: H[Aib]EGS[αMeF]TSDV[αMeS]S[αMeF]LEGEAA[αMeK]E[αMeF]IA[αMeF]VVK([γGlu-γGlu-γGlu-Stearoyl])GG-NH2
modifications: N-terminus assumed
SMILES: CCCCCCCCCCCCCCCCCC(=O)N[C@@H](CCC(=O)N[C@@H](CCC(=O)N[C@@H](CCC(=O)NCCCC[C@H](NC(=O)[C@@H](NC(=O)[C@@H](NC(=O)[C@](C)(Cc1ccccc1)NC(=O)[C@H](C)NC(=O)[C@@H](NC(=O)[C@](C)(Cc1ccccc1)NC(=O)[C@H](CCC(=O)O)NC(=O)[C@](C)(CCCCN)NC(=O)[C@H](C)NC(=O)[C@H](C)NC(=O)[C@H](CCC(=O)O)NC(=O)CNC(=O)[C@H](CCC(=O)O)NC(=O)[C@H](CC(C)C)NC(=O)[C@](C)(Cc1ccccc1)NC(=O)[C@H](CO)NC(=O)[C@](C)(CO)NC(=O)[C@@H](NC(=O)[C@H](CC(=O)O)NC(=O)[C@H](CO)NC(=O)[C@@H](NC(=O)[C@](C)(Cc1ccccc1)NC(=O)[C@H](CO)NC(=O)CNC(=O)[C@H](CCC(=O)O)NC(=O)C(C)(C)NC(=O)[C@@H](N)Cc1c[nH]cn1)[C@@H](C)O)C(C)C)[C@@H](C)CC)C(C)C)C(C)C)C(=O)NCC(=O)NCC(N)=O)C(=O)O)C(=O)O)C(=O)O
Consider B1, for which, in the assay with GLP-1 receptor (GLP-1R), the “Primary assay EC50 (cAMP), GLP-1R n1” value was determined as 0.047 nM; the “Primary assay EC50 (cAMP), GLP-1R n2” value is 0.012 nM; the “Primary assay EC50 (cAMP), Mean pM GLP-1R” value worked out at 29.5 pM. In the assay with glucagon receptor (GCGR), the “Primary assay EC50 (cAMP), Gluc-R, first run” value was 26 nM and the “Primary assay EC50 (cAMP), Gluc-R, second run” value was found to be 26 nM. Further, in assay [1], the “Primary assay EC50 (cAMP), GIP-R, first run” value is 26 nM and the “Primary assay EC50 (cAMP), GIP-R, second run” value is 26 nM.

B2: SEQ ID NO 186 (peptide)
peptide: H[Aib]EGS[αMeF]TSDV[αMeS]S[αMeF]LEGEAA[αMeK]E[αMeF]IA[αMeF]VVK([Ahx-Ahx-Stearoyl])GG-NH2
modifications: N-terminus assumed
SMILES: CCCCCCCCCCCCCCCCCC(=O)NCCCCCC(=O)NCCCCCC(=O)NCCCC[C@H](NC(=O)[C@@H](NC(=O)[C@@H](NC(=O)[C@](C)(Cc1ccccc1)NC(=O)[C@H](C)NC(=O)[C@@H](NC(=O)[C@](C)(Cc1ccccc1)NC(=O)[C@H](CCC(=O)O)NC(=O)[C@](C)(CCCCN)NC(=O)[C@H](C)NC(=O)[C@H](C)NC(=O)[C@H](CCC(=O)O)NC(=O)CNC(=O)[C@H](CCC(=O)O)NC(=O)[C@H](CC(C)C)NC(=O)[C@](C)(Cc1ccccc1)NC(=O)[C@H](CO)NC(=O)[C@](C)(CO)NC(=O)[C@@H](NC(=O)[C@H](CC(=O)O)NC(=O)[C@H](CO)NC(=O)[C@@H](NC(=O)[C@](C)(Cc1ccccc1)NC(=O)[C@H](CO)NC(=O)CNC(=O)[C@H](CCC(=O)O)NC(=O)C(C)(C)NC(=O)[C@@H](N)Cc1c[nH]cn1)[C@@H](C)O)C(C)C)[C@@H](C)CC)C(C)C)C(C)C)C(=O)NCC(=O)NCC(N)=O
As for B2, in the assay with GLP-1 receptor (GLP-1R), the “Primary assay EC50 (cAMP), GLP-1R n1” value was found to be 0.13 nM; the “Primary assay EC50 (cAMP), GLP-1R n2” value turned out to be 0.05 nM; the “Primary assay EC50 (cAMP), Mean pM GLP-1R” value was found to be 87.5 pM. Besides, in the assay with glucagon receptor (GCGR), the “Primary assay EC50 (cAMP), Gluc-R, first run” value was 27 nM and the “Primary assay EC50 (cAMP), Gluc-R, second run” value was 27 nM. In addition, in assay [1], the “Primary assay EC50 (cAMP), GIP-R, first run” value was determined as 27 nM and the “Primary assay EC50 (cAMP), GIP-R, second run” value was 27 nM.

B3: SEQ ID NO 185 (peptide)
peptide: H[Aib]EGS[αMeF]TSDV[αMeS]S[αMeF]LEGEAA[αMeK]E[αMeF]IA[αMeF]VVK([Ahx-Stearoyl])GG-NH2
modifications: N-terminus assumed
SMILES: CCCCCCCCCCCCCCCCCC(=O)NCCCCCC(=O)NCCCC[C@H](NC(=O)[C@@H](NC(=O)[C@@H](NC(=O)[C@](C)(Cc1ccccc1)NC(=O)[C@H](C)NC(=O)[C@@H](NC(=O)[C@](C)(Cc1ccccc1)NC(=O)[C@H](CCC(=O)O)NC(=O)[C@](C)(CCCCN)NC(=O)[C@H](C)NC(=O)[C@H](C)NC(=O)[C@H](CCC(=O)O)NC(=O)CNC(=O)[C@H](CCC(=O)O)NC(=O)[C@H](CC(C)C)NC(=O)[C@](C)(Cc1ccccc1)NC(=O)[C@H](CO)NC(=O)[C@](C)(CO)NC(=O)[C@@H](NC(=O)[C@H](CC(=O)O)NC(=O)[C@H](CO)NC(=O)[C@@H](NC(=O)[C@](C)(Cc1ccccc1)NC(=O)[C@H](CO)NC(=O)CNC(=O)[C@H](CCC(=O)O)NC(=O)C(C)(C)NC(=O)[C@@H](N)Cc1c[nH]cn1)[C@@H](C)O)C(C)C)[C@@H](C)CC)C(C)C)C(C)C)C(=O)NCC(=O)NCC(N)=O
In the case of B3, in the assay with GLP-1 receptor (GLP-1R), the “Primary assay EC50 (cAMP), GLP-1R n1” value was 0.38 nM; the “Primary assay EC50 (cAMP), GLP-1R n2” value was 0.12 nM; the “Primary assay EC50 (cAMP), Mean pM GLP-1R” value was found to be 251 pM. In addition, in the assay with glucagon receptor (GCGR), the “Primary assay EC50 (cAMP), Gluc-R, first run” value was 28 nM and the “Primary assay EC50 (cAMP), Gluc-R, second run” value worked out at 28 nM. In assay [1], the “Primary assay EC50 (cAMP), GIP-R, first run” value is 28 nM and the “Primary assay EC50 (cAMP), GIP-R, second run” value was found to be 28 nM.

B4: SEQ ID NO 183 (peptide)
peptide: H[Aib]EGS[αMeF]TSDV[αMeS]S[αMeF]LEGEAA[αMeK]E[αMeF]IA[αMeF]VVK([γGlu-γGlu-Stearoyl])GG-NH2
modifications: N-terminus assumed
SMILES: CCCCCCCCCCCCCCCCCC(=O)N[C@@H](CCC(=O)N[C@@H](CCC(=O)NCCCC[C@H](NC(=O)[C@@H](NC(=O)[C@@H](NC(=O)[C@](C)(Cc1ccccc1)NC(=O)[C@H](C)NC(=O)[C@@H](NC(=O)[C@](C)(Cc1ccccc1)NC(=O)[C@H](CCC(=O)O)NC(=O)[C@](C)(CCCCN)NC(=O)[C@H](C)NC(=O)[C@H](C)NC(=O)[C@H](CCC(=O)O)NC(=O)CNC(=O)[C@H](CCC(=O)O)NC(=O)[C@H](CC(C)C)NC(=O)[C@](C)(Cc1ccccc1)NC(=O)[C@H](CO)NC(=O)[C@](C)(CO)NC(=O)[C@@H](NC(=O)[C@H](CC(=O)O)NC(=O)[C@H](CO)NC(=O)[C@@H](NC(=O)[C@](C)(Cc1ccccc1)NC(=O)[C@H](CO)NC(=O)CNC(=O)[C@H](CCC(=O)O)NC(=O)C(C)(C)NC(=O)[C@@H](N)Cc1c[nH]cn1)[C@@H](C)O)C(C)C)[C@@H](C)CC)C(C)C)C(C)C)C(=O)NCC(=O)NCC(N)=O)C(=O)O)C(=O)O
As for B4, in the assay with GLP-1 receptor (GLP-1R), the “Primary assay EC50 (cAMP), GLP-1R n1” value came out at 0.064 nM; the “Primary assay EC50 (cAMP), GLP-1R n2” value turned out to be 0.018 nM; the “Primary assay EC50 (cAMP), Mean pM GLP-1R” value was determined as 40.9 pM. Also, in the assay with glucagon receptor (GCGR), the “Primary assay EC50 (cAMP), Gluc-R, first run” value is 27 nM and the “Primary assay EC50 (cAMP), Gluc-R, second run” value is 27 nM. In assay [1], the “Primary assay EC50 (cAMP), GIP-R, first run” value came to 27 nM and the “Primary assay EC50 (cAMP), GIP-R, second run” value was 27 nM.
